# Experimental data as given in the DeepSol protein solubility set.
# Experiment: soluble on expression in E. coli; label from the status in PepcDB or PDB records
row,Sequence,soluble on expression in E. coli
1,MRFIPLIVARPEVQMAIDEAILIARSEGRVPDTVRLYVFKPSSVTIGRFQSVRYDVNLEKAKELGIPVVRRITGGGSVFHDEYGEITYSVVISEDYHPMLKNIQDSYRFLAGPLVDALKDLGIEAEFSGLNDIVVRGKKISGSAQTRRRGIILQHGTLMYATRLEILGSVLKVSKEKLKDKGVKSIFERVTTLEREGIKVGRNEMYEVLRNSFFRAFPLDEGELTEYELELVEKLIEERYGNDKWNFQKLEHHHHHH,soluble
2,MRFITETELRDLYKAEPFTAYTLEPRTKLTPEARQFLVDRGIKLAEAQDCKSKSTGNGKSGTEQESWNVLRLRRRMESLESLFLMVGANLLSGGSTVLAEEVFALGRCFSEVKKTAWEQTSPVNLQFQDWSEAEMKNCSTYLGKHFDITEFHVRTENGAAIASLNHLRATLRELESAVLEAYWDEEFNVCSRQDLIEKINLIMNILCVMIWKCLGGQQCKT,not soluble
3,MRFSPIIGPSSYVSSLCHSILRGELFSTCSVGCIYCYARWYRGAHGKEKPLWESLKLIKMLGGIIREGLAITPIRVSTLSDPFQGEGKITLKFLKLALKEKVPVIINTKLIPREKHIKTIERLAEEGLVVVQVSLPTLEETKVLEPFSPSPGQRLELIERLSRAGVPTIVRVQPFVPGWIRDIHTFIEEIASAGARMIILEFLRIEKELLPLFSKLFPGEDIYKREWESYLPGTSTEEAPLLHPPLDYRLSIAREFSIKAEKEGLAFSTCKEGLFEFHTPLNVDCCGMAFFDVEYISRRPTLWDLYLEIVENGKAKGEDLWERCRREELLCRENLTPYPRWFRRGFIAHEKRLESVLRKPHIVERITPSIKYENGYFIKRKERSNSGYNSFF,not soluble
4,MRGSHHHHHHGLVPRGSMKITVLGCGALGQLWLTALCKQGHEVQGWLRVPQPYCSVNLVETDGSIFNESLTANDPDFLATSDLLLVTLKAWQVSDAVKSLASTLPVTTPILLIHNGMGTIEELQNIQQPLLMGTTTHAARRDGNVIIHVANGITHIGPARQQDGDYSYLADILQTVLPDVAWHNNIRAELWRKLAVNCVINPLTAIWNCPNGELRHHPQEIMQICEEVAAVIEREGHHTSAEDLRDYVMQVIDATAENISSMLQDIRALRHTEIDYINGFLLRRARAHGIAVPENTRLFEMVKRKESEYERIGTGLPRPW,soluble
5,MRGSHHHHHHGSATSANTDRIATAELGIAENKKDAQIAKAQANENKDGIAKNQADIQLHDKKITNLGILHSMVARAVGNNTQGVATNKADIAKNQADIANNIKNIYELAQQQDQHSSDIKTLAKVSAANTDRIAKNKAEADASFETLTKNQKLCSQA,soluble
6,MRGSHHHHHHGSMTRSALVTGITGQDGAYLAKLLLEKGYRVHGLVARRSSDTRWRLRELGIEGDIQYEDGDMADACSVQRAVIKAQPQEVYNLAAQSFVGASWNQPVTTGVVDGLGVTHLLEAIRQFSPETRFYQASTSEMFGLIQAERQDENTPFYPRSPYGVAKLYGHWITVNYRESFGLHASSGILFNHESPLRGIEFVTRKVTDAVARIKLGKQQELRLGNVDAKRDWGFAGDYVEAMWLMLQQDKADDYVVATGVTTTVRDMCQIAFEHVGLDYRDFLKIDPAFFRPAEVDVLLGNPAKAQRVLGWKPRTSLDELIRMMVEADLRRVSRE,soluble
7,MRGSHHHHHHGSVEVQVLIENVVFARNFVAEHGLSLLLKKGNKEIVVDTGQSENFIKNCGLMGIDVGRIKKVVLTHGHYDHIGGLKGLLERNPEVKIYTHKEILNKKYAMRKGGQFEEIGFDLSFYEKYKNNFVLIDKDAEIEEGFYVITNTDITYDNEFTTKNFFVEKEGKRIPDKFLDEVFVVVKEEDGINVVTGCSHAGILNILETARNRFGVSYIKSLIGGFHLRGMEEEKVKDIARKIEEYGVKKVLTGHCTGIDEYGFLKSVLKDKISYLTTSSSIVV,soluble
8,MRGSHHHHHHTDPALRAIPQISQAPGVVQLVLNFLQELEQQGFTGDTATSYADRLTMSTDNSIYQLLPDAVVFPRSTADVALIARLAAQERYSSLIFTPRGGGTGTNGQALNQGIIVDMSRHMNRIIEINPEEGWVRVEAGVIKDQLNQYLKPFGYFFAPELSTSNRATLGGMINTDASGQGSLVYGKTSDHVLGVRAVLLGGDILDTQPLPVELAETLGKSNTTIGRIYNTVYQRCRQQRQLIIDNFPKLNRFLTGYDLRHVFNDEMTEFDLTRILTGSEGTLAFITEARLDITRLPKVRRLVNVKYDSFDSALRNAPFMVEARALSVETVDSKVLNLAREDIVWHSVSELITDVPDQEMLGLNIVEFAGDDEALIDERVNALCARLDELIASHQAGVIGWQVCRELAGVERIYAMRKKAVGLLGNAKGAAKPIPFAEDTCVPPEHLADYIAEFRALLDSHGLSYGMFGHVDAGVLHVRPALDMCDPQQEILMKQISDDVVALTAKYGGLLWGEHGKGFRAEYSPAFFGEELFAELRKVKAAFDPHNRLNPGKICPPEGLDAPMMKVDAVKRGTFDRQIPIAVRQQWRGAMECNGNGLCFNFDARSPMCPSMKITQNRIHSPKGRATLVREWLRLLADRGVDPLKLEQELPESGVSLRTLIARTRNSWHANKGEYDFSHEVKEAMSGCLACKACSTQCPIKIDVPEFRSRFLQLYHTRYLRPLRDHLVATVESYAPLMARAPKTFNFFINQPLVRKLSEKHIGMVDLPLLSVPSLQQQMVGHRSANMTLEQLESLNAEQKARTVLVVQDPFTSYYDAQVVADFVRLVEKLGFQPVLLPFSPNGKAQHIKGFLNRFAKTAKKTADFLNRMAKLGMPMVGVDPALVLCYRDEYKLALGEERGEFNVLLANEWLASALESQPVATVSGESWYFFGHCTEVTALPGAPAQWAAIFARFGAKLENVSVGCCGMAGTYGHEAKNHENSLGIYELSWHQAMQRLPRNRCLATGYSCRSQVKRVEGTGVRHPVQALLEIIKGLCGR,soluble
9,MRGSHHHHHHTDPINKDIYQALQQLIPNEKIKVDEPLKRYTYTKTGGNADFYITPTKNEEVQAVVKYAYQNEIPVTYLGNGSNIIIREGGIRGIVISLLSLDHIEVSDDAIIAGSGAAIIDVSRVARDYALTGLEFACGIPGSIGGAVYMNAGAYGGEVKDCIDYALCVNEQGSLIKLTTKELELDYRNSIIQKEHLVVLEAAFTLAPGKMTEIQAKMDDLTERRESKQPLEYPSCGSVFQRPPGHFAGKLIQDSNLQGHRIGGVEVSTKHAGFMVNVDNGTATDYENLIHYVQKTVKEKFGIELNREVRIIGEHPKESLQPSLIS,soluble
10,MRGSHHHHHHTDPLPRLPVPPLQQSLDHYLKALQPIVSEEEWAHTKQLVDEFQASGGVGERLQKGLERRARKTENWLSEWWLKTAYLQYRQPVVIYSSPGVMLPKQDFVDLQGQLRFAAKLIEGVLDFKVMIDNETLPVEYLGGKPLCMNQYYQILSSCRVPGPKQDTVSNFSKTKKPPTHITVVHNYQFFELDVYHSDGTPLTADQIFVQLEKIWNSSLQTNKEPVGILTSNHRNSWAKAYNTLIKDKVNRDSVRSIQKSIFTVCLDATMPRVSEDVYRSHVAGQMLHGGGSRLNSGNRWFDKTLQFIVAEDGSCGLVYEHAAAEGPPIVTLLDYVIEYTKKPELVRSPMVPLPMPKKLRFNITPEIKSDIEKAKQNLSIMIQDLDITVMVFHHFGKDFPKSEKLSPDAFIQMALQLAYYRIYGQACATYESASLRMFHLGRTDTIRSASMDSLTFVKAMDDSSVTEHQKVELLRKAVQAHRGYTDRAIRGEAFDRHLLGLKLQAIEDLVSTPDIFMDTSYAIAMHFHLSTSQVPAKTDCVMFFGPVVPDGYGVCYNPMEAHINFSLSAYNSCAETNAARLAHYLEKALLDMRALLQSHPRAKLISEEDLSLISG,soluble
11,MRGVVGVLALQGDFREHKEALKRLGIEAKEVRKKEHLEGLKALIVPGGESTTIGKLAREYGIEDEVRKRVEEGSLALFGTCAGAIWLAKEIVGYPEQPRLGVLEAWVERNAFGRQVESFEEDLEVEGLGSFHGVFIRAPVFRRLGEGVEVLARLGDLPVLVRQGKVLASSFHPELTEDPRLHRYFLELAGV,soluble
12,MRGVVKELNDDGFGVLGNVLVPFSAPGDEVEILKIEKVKKAKIASKWKLIKSSPLRVGARCKVFGRCGGCSLQHLSYDYQLEFKGERIRRLLGVDVEVIPSPRIFGHRNRIDLAVTVEGIGFRERGKWWKIVDIQECPVFGKTSRKAIERLREFIEEERISVWNVKKDEGFLRYMVLREGKFTGEVMVNLVTKEGKLPDPSKYFDFATSIYWSVNRTKSDVSYGEVESVWGREFITEKLDDVIYLIHPNSFFQTNSYQAVNLVKKVSELVEGERVLDMYSGVGTFGIYLAKRGFKVVGFDSNEFAIEMARKNAKINKVDAVFDVATDREVEVNGFDTVIVDPPRVGLHPKLIKKLNREKPEVIVYVSCNPKTFARDIEKLEYKIDEIVALDMFPHTPHLELVAKLIV,soluble
13,MRGYFIVLEGIDGSGKTTQAKLLAEWFEDKGYEVLLTKEPTDSELGKLIRRIILEESVIDGSKISYEAEALLFAADRAEHVKKIILPALSEGKVVICDRYFYSSLAYQWARGLDLNWLIQVNSFAPRPDLAILLDLPVKESLRRIKLRGTLTEFDKIVELQRKVRHNYLKLAEMFPEMRIVNALSSIEDIHSDIVALVKHELLGL,soluble
14,MRHFDASQPLRVAVLGTGFGSKVHIPALQHHSETTVQAVYHRQPDRAAAIAVQFGIPNAYSDLDQLLADPAIEAVTIASPPFLHYPMAWAALSAGKSVLLEKPTTLNVEEARALWKLASSQGLTVTLDFEYRFVPAWQYVAELLAEGVIGQPWLVKLDWLMSSRADASRPWNWYALRSQGGGALGALGSHSFDYLAWLFGPARRLQARLFTAIQERPDATTGELKPVDSDDTDLIQLELAEGVPCQISLSSVFRQGRGHWLEVYGDRGTLILGSSNQKDYVHGFQVWFASAGQALQELTVPQRLAFRQEFADGRLAPFLRVVDHWLADLRHGQMTAPSLKEGLYSQLLIDLCWQSQRSGEWQTVPELNRFLLEHHHHHH,not soluble
15,MRHMMQLKAPFFSDNATDLPFWWEEARPSPVQTDDLPSSTEVAIIGAGFTGLNAALVLARAGKQVSVFDADEPGYGASSRNGGFLGPGWAFFDTGMQYGADTARQIVEESFHSLQHVKDVVAMEKIDCDLKEVGYFKGAMTPRVYDAIGRNMDRIRKIIPCNVYMVPRSEQHKEIGSDLYHGGVAMPGYCGIHPAKYVKGLAEAANRLGVKIYSNARVSDLEGKNGGFSFKVGSRTIAARQILLAANGYSGSLLPHLKRRIIPVGSGLIATEQLPVEVMDRLMPKRQMLAGSQRVVTYYRPSPDNTRIVFGGRVLNMSGAHESAVANAKYIRSLLLAVFPELASAKITNYWHGQLGFTFDHLPHVQTIDGMYFAGGYNGTGVARASWLGSRVAYEMLGSDLGKTVYRNLPFDGRRFYNGKPYFLPLAVWYYGMLDKWDQRLEHHHHHH,not soluble
16,MRHMSGDHAALVLGAGAGRRLGRSKQLLMRDGEPLLRRAARIALLTAPRRCVVVLGADADTLSEVLQDLDIEILRHPDWSEGMGSSLAALRRHVQGDPALRRSLILGCDQPALDAPHLRSLLEEADRAVSGCATSGYSGVRGIPAVVTHTAWADVPLQADSGLRGLFASLDMQSLGCVSAPALALDIDTPADLATAQQRGWVDAELEHHHHHH,not soluble
